Target: Kv1.3 (human (T-cells from human blood donors)) (UniProt P22001)
Assay: cell-based or functional assay

Chain of Kv1.3 (human (T-cells from human blood donors)) (P22001 whole entry): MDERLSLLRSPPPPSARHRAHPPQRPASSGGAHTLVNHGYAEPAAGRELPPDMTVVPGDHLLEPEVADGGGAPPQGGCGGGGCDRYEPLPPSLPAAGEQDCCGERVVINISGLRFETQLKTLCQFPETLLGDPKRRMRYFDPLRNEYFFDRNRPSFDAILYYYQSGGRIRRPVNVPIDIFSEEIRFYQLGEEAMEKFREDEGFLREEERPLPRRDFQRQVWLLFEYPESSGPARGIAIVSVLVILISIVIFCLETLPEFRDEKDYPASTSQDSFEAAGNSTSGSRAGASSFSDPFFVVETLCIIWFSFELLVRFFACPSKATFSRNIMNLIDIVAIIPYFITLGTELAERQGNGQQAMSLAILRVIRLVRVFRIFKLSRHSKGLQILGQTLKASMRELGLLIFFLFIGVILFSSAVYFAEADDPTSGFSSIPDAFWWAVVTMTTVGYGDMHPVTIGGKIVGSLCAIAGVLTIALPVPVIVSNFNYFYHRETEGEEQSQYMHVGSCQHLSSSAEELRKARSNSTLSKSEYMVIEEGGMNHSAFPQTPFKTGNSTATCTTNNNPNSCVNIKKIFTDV

“BLV1H12 GLLV 3xG4S OSK1 (K16,D20) (antibody)” showed a TNF-α ELISA (A450), Donor 1, 6 nM IgG of 0.641 A450, a TNF-α ELISA (A450), Donor 1, 17 nM IgG of 0.698 A450 and a TNF-α ELISA (A450), Donor 1, 50 nM IgG of 0.556 A450. The TNF-α ELISA (A450), Donor 1, 150 nM IgG was 0.253 A450, the TNF-α ELISA (A450), Donor 2, 6 nM IgG was 0.096 A450 and the TNF-α ELISA (A450), Donor 2, 17 nM IgG was 0.094 A450. It also gave a TNF-α ELISA (A450), Donor 2, 50 nM IgG of 0.075 A450, a TNF-α ELISA (A450), Donor 2, 150 nM IgG of 0.027 A450 and a TNF-α ELISA (A450), Donor 3, 6 nM IgG of 0.159 A450. For the same substance, the TNF-α ELISA (A450), Donor 3, 17 nM IgG was 0.144 A450, the TNF-α ELISA (A450), Donor 3, 50 nM IgG was 0.102 A450 and the TNF-α ELISA (A450), Donor 3, 150 nM IgG was 0.029 A450.

For “BLV1H12 GLLV 3xG4S OSK1 (P12,K16,D20) (antibody)”, the TNF-α ELISA (A450), Donor 1, 6 nM IgG was 0.666 A450, the TNF-α ELISA (A450), Donor 1, 17 nM IgG was 0.651 A450 and the TNF-α ELISA (A450), Donor 1, 50 nM IgG was 0.58 A450. For the same substance, the TNF-α ELISA (A450), Donor 1, 150 nM IgG was 0.171 A450, the TNF-α ELISA (A450), Donor 2, 6 nM IgG was 0.121 A450 and the TNF-α ELISA (A450), Donor 2, 17 nM IgG was 0.108 A450. It also gave a TNF-α ELISA (A450), Donor 2, 50 nM IgG of 0.097 A450, a TNF-α ELISA (A450), Donor 2, 150 nM IgG of 0.037 A450 and a TNF-α ELISA (A450), Donor 3, 6 nM IgG of 0.191 A450. It also gave a TNF-α ELISA (A450), Donor 3, 17 nM IgG of 0.168 A450, a TNF-α ELISA (A450), Donor 3, 50 nM IgG of 0.122 A450 and a TNF-α ELISA (A450), Donor 3, 150 nM IgG of 0.037 A450.

Source: patent publication US20230287598A1
